# Experiments:
# [1] = biological target: human/mouse 5T4 chimera E4 (human/mouse chimera) (UniProt Q13641); assay: flow cytometry, chimera-transfected cells
# [2] = biological target: human/mouse 5T4 chimera E1 (human/mouse chimera) (UniProt Q13641); assay: flow cytometry, chimera-transfected cells
# [3] = biological target: human/mouse 5T4 chimera E3 (human/mouse chimera) (UniProt Q13641); assay: flow cytometry, chimera-transfected cells
# [4] = biological target: human/mouse 5T4 chimera E6 (human/mouse chimera) (UniProt Q13641); assay: flow cytometry, chimera-transfected cells
# [5] = biological target: human/mouse 5T4 chimera E5 (human/mouse chimera) (UniProt Q13641); assay: flow cytometry, chimera-transfected cells
# [6] = biological target: human/mouse 5T4 chimera E2 (human/mouse chimera) (UniProt Q13641); assay: flow cytometry, chimera-transfected cells
# [7] = biological target: human/mouse 5T4 chimera E7 (human/mouse chimera) (UniProt Q13641); assay: flow cytometry, chimera-transfected cells
# [8] = biological target: human/mouse CD137 chimera 1553 (human/mouse chimera) (UniProt Q07011); assay: flow cytometry, transfected 293-F cells
# [9] = biological target: human/mouse CD137 chimera 1554 (human/mouse chimera) (UniProt Q07011); assay: flow cytometry, transfected 293-F cells
# [10] = biological target: human/mouse CD137 chimera 1551 (human/mouse chimera) (UniProt Q07011); assay: flow cytometry, transfected 293-F cells
# [11] = biological target: human/mouse CD137 chimera 1555 (human/mouse chimera) (UniProt Q07011); assay: flow cytometry, transfected 293-F cells
# [12] = biological target: human/mouse CD137 chimera 1552 (human/mouse chimera) (UniProt Q07011); assay: flow cytometry, transfected 293-F cells
# [13] = biological target: human/mouse CD137 chimera 1550 (human/mouse chimera) (UniProt Q07011); assay: flow cytometry, transfected 293-F cells
# [14] = biological target: human/mouse CD137 chimera 1553 (human/mouse chimera) (UniProt Q07011); assay: flow cytometry, transfected 293-F cells, Exp 2
# [15] = biological target: human/mouse CD137 chimera 1554 (human/mouse chimera) (UniProt Q07011); assay: flow cytometry, transfected 293-F cells, Exp 2
# [16] = biological target: human/mouse CD137 chimera 1551 (human/mouse chimera) (UniProt Q07011); assay: flow cytometry, transfected 293-F cells, Exp 2
# [17] = biological target: human/mouse CD137 chimera 1555 (human/mouse chimera) (UniProt Q07011); assay: flow cytometry, transfected 293-F cells, Exp 2
# [18] = biological target: human/mouse CD137 chimera 1552 (human/mouse chimera) (UniProt Q07011); assay: flow cytometry, transfected 293-F cells, Exp 2
# [19] = biological target: human/mouse CD137 chimera 1550 (human/mouse chimera) (UniProt Q07011); assay: flow cytometry, transfected 293-F cells, Exp 2
# [20] = biological target: human/mouse CD137 chimera 1553 (human/mouse chimera) (UniProt Q07011); assay: flow cytometry, transfected 293-F cells, Exp 1
# [21] = biological target: human/mouse CD137 chimera 1554 (human/mouse chimera) (UniProt Q07011); assay: flow cytometry, transfected 293-F cells, Exp 1
# [22] = biological target: human/mouse CD137 chimera 1551 (human/mouse chimera) (UniProt Q07011); assay: flow cytometry, transfected 293-F cells, Exp 1
# [23] = biological target: human/mouse CD137 chimera 1555 (human/mouse chimera) (UniProt Q07011); assay: flow cytometry, transfected 293-F cells, Exp 1
# [24] = biological target: human/mouse CD137 chimera 1552 (human/mouse chimera) (UniProt Q07011); assay: flow cytometry, transfected 293-F cells, Exp 1
# [25] = biological target: human/mouse CD137 chimera 1550 (human/mouse chimera) (UniProt Q07011); assay: flow cytometry, transfected 293-F cells, Exp 1
relative MFI normalized to full-length human CD137 [8],relative MFI normalized to full-length human CD137 [9],relative MFI normalized to full-length human CD137 [10],relative MFI normalized to full-length human CD137 [11],relative MFI normalized to full-length human CD137 [12],relative MFI normalized to full-length human CD137 [13],Binder,further results
–,–,–,–,–,–,"1206/1207 (antibody, V domains shown) VH: EVQLLESGGGLVQPGGSLRLSCAASGFTFSGSSMSWVRQAPGKGLEWVSSIYYSGSGTYYADSVKGRFTISRDNSKNTLYLQMNSLRAEDTAVYYCARYGRNVHPYNLDYWGQGTLVTVSS VL: DIQMTQSPSSLSASVGDRVTITCRASQSISSYLNWYQQKPGKAPKLLIYAASSLQSGVPSRFSGSGSGTDFTLTISSLQPEDFATYYCQQGYYYLPTFGQGTKLEIK",normalized % positive cells [1]: 0.52; normalized % positive cells [2]: 0.96; normalized % positive cells [3]: 0.25; normalized % positive cells [4]: 0.94; normalized % positive cells [5]: 0.9; normalized % positive cells [6]: 0.74; normalized % positive cells [7]: 0.94
1.24,1.01,0.67,0.12,1.2,0.11,"1618/1619 (antibody, V domains shown) VH: EVQLLESGGGLVQPGGSLRLSCAASGFTFSYGSMYWVRQAPGKGLEWVSSISSGSGSTYYADSVKGRFTISRDNSKNTLYLQMNSLRAEDTAVYYCARSSYYGSYYSIDYWGQGTLVTVSS VL: DIQMTQSPSSLSASVGDRVTITCRASQSISSYLNWYQQKPGKAPKLLIYAASSLQSGVPSRFSGSGSGTDFTLTISSLQPEDFATYYCQQYYDNLPTFGQGTKLEIK",–
0.65,0.84,0.04,0.24,0.05,0.05,"1200/1201 (antibody, V domains shown) VH: EVQLLESGGGLVQPGGSLRLSCAASGFTFSSYAMSWVRQAPGKGLEWVSGISGGGGGTYYADSVKGRFTISRDNSKNTLYLQMNSLRAEDTAVYYCARDVAYFDYWGQGTLVTVSS VL: DIQMTQSPSSLSASVGDRVTITCRASQSISSYLNWYQQKPGKAPKLLIYAASSLQSGVPSRFSGSGSGTDFTLTISSLQPEDFATYYCQQYYIPHTFGQGTKLEIK",–
0.17,0.17,0.33,0.32,0.18,0.17,"1620/1621 (antibody, V domains shown) VH: EVQLLESGGGLVQPGGSLRLSCAASGFTFSGYYMYWVRQAPGKGLEWVSGISSSGSYTYYADSVKGRFTISRDNSKNTLYLQMNSLRAEDTAVYYCARSVGPYFDYWGQGTLVTVSS VL: DIQMTQSPSSLSASVGDRVTITCRASQSISSYLNWYQQKPGKAPKLLIYAASSLQSGVPSRFSGSGSGTDFTLTISSLQPEDFATYYCQQGVGPYTFGQGTKLEIK",–
–,–,–,–,–,–,"1214/1215 (antibody, V domains shown) VH: EVQLLESGGGLVQPGGSLRLSCAASGFTFSSYAMSWVRQAPGKGLEWVSSIGSGGGYTGYADSVKGRFTISRDNSKNTLYLQMNSLRAEDTAVYYCARVGHPFDYWGQGTLVTVSS VL: DIQMTQSPSSLSASVGDRVTITCRASQSISSYLNWYQQKPGKAPKLLIYAASSLQSGVPSRFSGSGSGTDFTLTISSLQPEDFATYYCQQDAYPHTFGQGTKLEIK",relative MFI normalized to full-length human CD137 [14]: 0.15; relative MFI normalized to full-length human CD137 [15]: 0.15; relative MFI normalized to full-length human CD137 [16]: 0.15; relative MFI normalized to full-length human CD137 [17]: 0.45; relative MFI normalized to full-length human CD137 [18]: 0.13; relative MFI normalized to full-length human CD137 [19]: 0.14; relative MFI normalized to full-length human CD137 [20]: 0.41; relative MFI normalized to full-length human CD137 [21]: 0.26; relative MFI normalized to full-length human CD137 [22]: 0.07; relative MFI normalized to full-length human CD137 [23]: 0.3; relative MFI normalized to full-length human CD137 [24]: 0.32; relative MFI normalized to full-length human CD137 [25]: 0.06
–,–,–,–,–,–,"1212/1213 (antibody, V domains shown) VH: EVQLLESGGGLVQPGGSLRLSCAASGFTFSSYAMSWVRQAPGKGLEWVSYISSYGGYTSYADSVKGRFTISRDNSKNTLYLQMNSLRAEDTAVYYCARYHSGVLDYWGQGTLVTVSS VL: DIQMTQSPSSLSASVGDRVTITCRASQSISSYLNWYQQKPGKAPKLLIYAASSLQSGVPSRFSGSGSGTDFTLTISSLQPEDFATYYCQQYYYHYLLTFGQGTKLEIK",normalized % positive cells [1]: 1; normalized % positive cells [2]: 0.89; normalized % positive cells [3]: 0.93; normalized % positive cells [4]: 0.03; normalized % positive cells [5]: 0.84; normalized % positive cells [6]: 0.9; normalized % positive cells [7]: 0.88
0.85,0.73,0.11,0.28,0.13,0.07,"1204/1205 (antibody, V domains shown) VH: EVQLLESGGGLVQPGGSLRLSCAASGFTFSSYYMGWVRQAPGKGLEWVSGIGSYYGYTGYADSVKGRFTISRDNSKNTLYLQMNSLRAEDTAVYYCARAYYDYNYYYAYFDYWGQGTLVTVSS VL: DIQMTQSPSSLSASVGDRVTITCRASQSISSYLNWYQQKPGKAPKLLIYAASSLQSGVPSRFSGSGSGTDFTLTISSLQPEDFATYYCQQSVPHYPFTFGQGTKLEIK",–
0.14,0.12,0.11,0.29,0.11,0.1,"1626/1627 (antibody, V domains shown) VH: EVQLLESGGGLVQPGGSLRLSCAASGFTFGGYSMYWVRQAPGKGLEWVSSIGGYYYSTYYADSVKGRFTISRDNSKNTLYLQMNSLRAEDTAVYYCARSYYGSIDYWGQGTLVTVSS VL: DIQMTQSPSSLSASVGDRVTITCRASQSISSYLNWYQQKPGKAPKLLIYAASSLQSGVPSRFSGSGSGTDFTLTISSLQPEDFATYYCQQGTGYGPLTFGQGTKLEIK",–
0.65,0.51,0.05,0.26,0.06,0.05,"1202/1203 (antibody, V domains shown) VH: EVQLLESGGGLVQPGGSLRLSCAASGFTFYGSSMSWVRQAPGKGLEWVSSIYYGSSGTYYADSVKGRFTISRDNSKNTLYLQMNSLRAEDTAVYYCARSYYGYFDYWGQGTLVTVSS VL: DIQMTQSPSSLSASVGDRVTITCRASQSISSYLNWYQQKPGKAPKLLIYAASSLQSGVPSRFSGSGSGTDFTLTISSLQPEDFATYYCQQYYTVVPFTFGQGTKLEIK",–

# — US20220213213A1
